Assay results from patent US20040248211A1, “ICAM-related protein” (priority 1992, published 2004).

What was measured:
[1] = system: CD4+ T cells with allogeneic epidermal cells; assay: Langerhans cell alloantigen presentation to CD4+ T cells; assay type: cell-based, human; settings: 50 μg antibody
Experimental: Blocking experiments were performed to determine whether the observed ICAM-R expression on Lcs was functionally important in antigen presentation. CD4^+ T cells were prepared from peripheral blood and 10^5 CD4^+ T cells were combined with 4×10^4 epidermal cells harvested from keratome biopsies of normal skin of an individual allogenic to the T cell donor. Proliferation was measured by ^3H thymidine uptake. Alloantigen presentation was unaffected by addition of 50 μg IgG1 isotype control. […] Inhibition was 73% of that produced by addition of anti-LFA-1 (anti-CD11a) antibody.

human basophils = assay: Basophil histamine release; assay type: cell-based; settings: added simultaneously with anti-IgE 0.01 μg/ml
From the text: Basophils were obtained at low purity by dextran sedimentation of erythrocytes in EDTA-anti-coagulated peripheral venous blood, at slightly enriched percentages from mononuclear cell layers of density gradient Percoll centrifugation preparations, and at high purity (>70%) from leukophoresis packs following clutriation and density gradient centrifugation. In the assays, polyclonal goat anti-human IgE and ICAM-R monoclonals antibodies ICR-1.1, ICR-2.1, ICR-4.2 and ICR-8.1 were used alone or in combination. The […] was used to induce histamine release which was quantitated using an automated fluorometric assay after a 45 minute incubation with secretagogue. LTC4 production was measured by radioimmunoassay as previously described in Schleimer et al., J. Immunol., 143:1310-1317 (1989), while IL-4 in cell supernatants was assayed using the IL-4 Quantikine ELSA kit (R&D Systems, Minneapolis, Minn.). Basophil adhesion to unstimulated or IL-1 treated monolayers of human umbilical vein endothelial cells was examined as previously described in Bochner et al., J. Clin. Invest., 81: 1355-1360 (1988) and Bochner et al., J. Immunol., 142: 3180-3186 (1989), in the presence or absence of ICR-2.1 monoclonal antibody. […]

ICAM-R peptides = assay: Multipin peptide ELISA; assay type: binding, human; settings: hybridoma supernatant
Experimental: The first method for mapping linear epitopes recognized by the ICAM-R specific antibodies of the invention utilized the Multipin Peptide Synthesis System (Chiron Mimotopes Pty. Ltd., Victoria, Australia) which places ten amino acid peptides representing overlapping segments of the protein of interest on the surface of a series of plastic pins. A modified ELISA test is performed to determine binding of a monoclonal antibody to each peptide.
The ELISA to determine binding of the monoclonal antibodies to ICAM-R peptides was run as follows. […] The pins were transferred to plates containing ABTS substrate solution [0.5 mg/ml ABTS, 0.01% weight/volume H2O2 in substrate buffer (17.9 g/L Na2HPO4H2O, 16.8 g/L citric acid monohydrate, pH 4.0)] for 45 minutes at 20° C. with agitation and then the plates were read at 410/495 nm.
Relative reactivity with individual pins was determined after normalizing results for differences in immunoglobulin concentrations in anti-ICAM-R and control hybridoma supernatants and reactivities of positive controls between assays. Mouse IgG levels for each supernatant had been determined by antibody capture ELISA as follows. […] Antibody concentrations of culture supernatant were determined by fitting measured optical densities to the standard curve of the isotype matched control.

PBMC = PBMC proliferation with or without rIL-2; assay type: cell-based, human; settings: immobilized antibody 10 μg/well; with or without rIL-2 10 units/ml; 3 days
Experimental: Ten μg of ICAM-R monoclonal antibodies ICR-1.1 or ICR-4.2 (or control IgG1 and IgG2) antibodies) in PBS were added per well of 96-well flat bottom tissue culture plates and the plates were incubated for 3-4 hours at 37° C. in a 5% CO2 incubator. After incubation, each well was rinsed 3 times with PBS and freshly obtained PBL were added to a final concentration of 2×10^5 cells/well in a volume of 200 μl. Ten units/ml human recombinant IL-2 (Genzyme, Boston, Mass.) was then added to selected wells. The plates were incubated for a total of 3 days at 37° C. in a 5% CO2 incubator. ^3H-thymidine incorporation by the PMBC was determined as described earlier in this example. […] Positive controls for lymphocyte proliferation included immobilized anti-CD3 and anti-LFA-1 (60.3) monclonal antibodies.

resting PBLs = assay: T cell receptor induced tyrosine phosphorylation after pretreatment; assay type: cell-based, human
Experimental: Briefly, resting PBLs were isolated and treated with ICR-1.1 or isotype matched control antibody as described above in Section I. After the cells were removed from antibody, they were washed one time in PBS, resuspended in PBS to a concentration of 1×10^6 cells/ml, and either treated or not treated with antisera to the T cell receptor (G19-4) for 2 minutes at 37° C. The cells were then spun down and lysed in boiling 2×SDS-sample buffer, boiled a further 5 minutes and resolved on 10% SDS-PAGE. Proteins were transferred to nitrocellulose and blotted with the 4G10 anti-phosphotyrosine antibody as described. […] This is consistent with the result that CD69 upregulation in these cells is also normal (Section L above), since CD69 expression requires PLC-gamma stimulated PKC activity and PLC-gamma activation requires tyrosine phosphorylation.

Molecule | inhibition relative to that produced by anti-LFA-1 (anti-CD11a) antibody [1] [%] | reduction in Lcs alloantigen-driven proliferative response of T cells [1] [%] | anti-IgE-induced histamine release (human basophils) | reactivity with overlapping ten amino acid ICAM-R peptides (ICAM-R peptides) | PBMC proliferation (3H-thymidine) (PBMC) | tyrosine phosphorylation in response to G19-4 after pretreatment (resting PBLs)
ICR-8.1: anti-ICAM-R monoclonal antibody, IgG1, domain 1, ATCC HB 11232 (antibody, V domains shown) VH: EIQLQQTGPELVKPGASVKISCKASGYSFTDCIILWVKQSHGKGLEWIGKINPYFGTTTYNLKFKGKATLTVDKSSSTAHMQLNSLTSEDSAVYYCARKEAYPDAMDYWGQGTSVTVSS VL: DAVMTQTPLSLPVSLGDQASISCRSSQSLVHSNGDTYLHWYLQKPGQSPQLLIYKVSNRFSGVPDRFSGSGSGTDFTLKLSRVEAEDLGVYFCSQSTHVPYTFGGGTKLEIK | 73 | 47 | neither ICR-8.1 nor the domain 2-specific monoclonal antibody ICR-4.2 had any significant potentiating activity |  |  | 
ICR-1.1: anti-ICAM-R monoclonal antibody, IgG2a, domain 1, ATCC HB 11053 (antibody, V domains shown) VH: QVQLQQSGAELAKPGASVKMSCKASGYTFTVYWMHWVKQRPGQGLEWIGYINPNTDYTEYNQRFQDKATLTADKSSSTAYMQLSSLTSEDSAVYYCARWGGNSYGLDYWGQGTSVTVSS VL: QIVLTQSPALMSASPGEKVTMTCSASSSVSYIYWYQQKPRSSPKPWIYLTSNLASGVPARFSGSGSGASYSLTISIMEAEDAATYYCQQWKSIPLTFGAGTKLELK |  |  |  | two overlapping peptides spanning amino acids 13-23 | did not induce PMBC proliferation even in the presence of rIL2 | there was an induction of tyrosine phosphorylation in response to G19-4 treatment
